In the supplement of paper PMC10567573:

B1: FAM46C (parent)
chain: VRSRLEEAGIKVHDVRLNGSAAGH
B2: CLCN6 (parent)
chain: TGLVGLFVDFFVRLFTQLKFGVVQ

Variants of: B1
Assay: protein stability index of a GFP-peptide fusion (GPS, HEK-293T) (PSI 1-6); higher = more stable
Settings: c terminus: a fixed tail appended
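Further: lentivirally expressed fusions sorted by FACS into six bins by GFP to DsRed ratio, PSI derived from sequencing read proportions per bin multiplied by bin number.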

Protein stability index of substitutions, site by site:
S3: P 4.33, G 2.91, W 2.05, F 1.69, L 1.28, H 3.76, K 1.37, V 1.69, N 1.77, T 1.68, Y 1.53, Q 1.79, M 1.53
R2: Y 2.95, L 2.34, W 2.28, M 2.33, A 3.04, H 2.4, C 2.3, E 3.85, P 3.89, I 2.15, S 4.37, V 2.13, D 4.25, F 2.04, T 3.82, G 3.36, Q 2.58
L5: D 4.35, A 4.34, E 4.38, G 4.21, C 3.68
R4: S 3, Q 3.52, H 3.26, E 4.73, A 1.2, T 3.71, F 1.89, K 2.27, C 2.72, I 2.53, G 3.25, P 4.24, N 2.47, W 2.33, Y 1.81
V1: N 3.5, M 2.6, L 1.33, H 4.02, K 3.62, F 2.56, Q 4.59, T 4.25, P 4.38, D 4.33, E 3.44, A 3.16, Y 3.57, R 4.11, S 4.18

Variants of: B2
Assay: as above
Settings: c terminus: a fixed tail appended

Protein stability index, by site and new letter:
L18: K 2.02, Y 3.06, H 3.39, I 2.7, C 2.36, D 2.25, T 2.75, V 1.98, P 2.63, M 2.48
V4: N 2.39, K 2.16, Q 2.79, G 1.66, H 2.28, R 2.19, F 2.93, M 2.49, P 2.05, L 2.33, D 4.33, I 2.56, C 2.36
T16: G 2.81, E 1.75, M 2.35, N 3.55, C 1.99, K 2.76, P 1.8, L 2.02, I 2.41, V 1.78
F20: V 2.84, P 2.12, E 3.61, S 3.86, G 2.89, A 3.03, M 2.77, N 3.99, T 3.48, K 4.3, D 4.13, W 2.63
F15: V 2.72, A 1.96, T 2.51, H 2.71, C 2.2, S 2.76, P 2.86, R 2.27, I 3.25, N 2.67, D 2.88, K 2.12, L 1.96
V23: Q 2.77, I 2.23, K 2.45, E 1.94, S 2.73, A 2.27, M 2.68, D 2.41, G 2.18, Y 2.51, F 2.98, P 1.97
D9: A 1.59, N 2.87, S 2.15, R 3.51, T 1.97, H 2.61, M 1.89, K 3.08, G 2.47
K19: G 1.98, Q 2.89, H 3.23, E 4.38, N 2.21, R 2.17, W 3.05, A 2.84, P 1.91
V8: M 2.08, Y 2.79, D 2.45, T 1.9, P 1.7, S 1.76, W 3.01, E 1.38, I 1.74, N 2.27, G 2.9, C 2.25
V12: Y 3.07, L 1.95, Q 2.52, D 1.73, K 1.91, P 1.78, S 2.45, H 2.09, W 2.95, A 2.11, I 2.02, M 2.47, G 2.11
V22: L 2.5, E 3.23, N 1.25, S 2.33, Y 2.36, R 2.34, Q 2.48, C 1.87, K 2.26, I 2.84, W 2.72
Q24: C 1.26, H 2.07, S 2.94, G 2.32, A 1.66, F 1.18, E 2.08, Y 1.74, V 1.71, M 1.9, K 3.16
F7: V 3.05, P 2.28, D 3.18, M 2.56, L 2.77, S 1.82, I 2.57, T 2.35, W 2.28, G 1.73, H 2.44, C 2.89, R 1.69
T1: H 2.01, A 1.84, L 1.68, C 2.14, M 1.99, E 1.92, S 2.6, K 2.83, I 1.56, N 1.8, V 1.7
L14: H 1.85, R 1.86, I 2.25, A 1.61, D 4.06, Q 1.55, Y 2.25, V 2.02, G 1.68, K 2.34, N 1.83, W 2.8
G21: Y 3.39, C 1.86, H 3.06, E 2.3, V 3, A 3.26, I 2.94, L 3.33, N 2.38, S 3.08, R 3.56, K 3.7, M 3.39, T 2.4, W 3.59
Q17: C 2.01, D 1.81, N 2.44, G 1.77, L 2.43, I 1.79, P 2.08, H 2.26, K 2.48, T 2.12
F10: I 2.21, V 2.42, L 1.77, M 1.81, N 2.32, C 1.42, G 1.29, E 2.19, P 2.17, W 2.7, R 2.82
L6: W 3.31, N 2.76, H 3.06, A 2.77, D 2.33, V 2.15, T 2.71, P 2.65, G 3.36, I 2.83, Y 3.19, C 2.69, Q 3.53
G5: K 3.25, M 2.48, H 2.16, R 2.69, A 2.19, S 2.21, N 2, T 1.34, Y 2.08
L3: N 2.11, R 2.52, E 3.71, F 2.71, S 2.05, T 1.65, Y 2.63, A 2.15, V 2.42, Q 1.49, C 2.42, P 2.45
F11: P 2.07, W 2.35, Y 2.32, N 2.88, M 2.16, I 2.29, L 2.32, S 1.77, R 2.75, D 4.03, T 2.01
G2: R 2.78, Y 2.9, Q 1.73, N 1.84, T 1.81, W 2.22, E 1.67, C 2.77, I 2.36
R13: I 2.59, G 1.54, M 3.23, D 1.83, S 1.84, K 2.73, P 3.13, W 2.1
